B1: CtIP ΔC782 (domain or fragment, human, UniProt Q99708 1-782, looked up)
chain: MNISGSSCGSPNSADTSSDFKDLWTKLKECHDREVQGLQVKVTKLKQERILDAQRLEEFFTKNQQLREQQKVLHETIKVLEDRLRAGLCDRCAVTEEHMRKKQQEFENIRQQNLKLITELMNERNTLQEENKKLSEQLQQKIENDQQHQAAELECEEDVIPDSPITAFSFSGVNRLRRKENPHVRYIEQTHTKLEHSVCANEMRKVSKSSTHPQHNPNENEILVADTYDQSQSPMAKAHGTSSYTPDKSSFNLATVVAETLGLGVQEESETQGPMSPLGDELYHCLEGNHKKQPFEESTRNTEDSLRFSDSTSKTPPQEELPTRVSSPVFGATSSIKSGLDLNTSLSPSLLQPGKKKHLKTLPFSNTCISRLEKTRSKSEDSALFTHHSLGSEVNKIIIQSSNKQILINKNISESLGEQNRTEYGKDSNTDKHLEPLKSLGGRTSKRKKTEEESEHEVSCPQASFDKENAFPFPMDNQFSMNGDCVMDKPLDLSDRFSAIQRQEKSQGSETSKNKFRQVTLYEALKTIPKGFSSSRKASDGNCTLPKDSPGEPCSQECIILQPLNKCSPDNKPSLQIKEENAVFKIPLRPRESLETENVLDDIKSAGSHEPIKIQTRSDHGGCELASVLQLNPCRTGKIKSLQNNQDVSFENIQWSIDPGADLSQYKMDVTVIDTKDGSQSKLGGETVDMDCTLVSETVLLKMKKQEQKGEKSSNEERKMNDSLEDMFDRTTHEEYESCLADSFSQAADEEEELSTATKKLHTHGDKQDKVKQKAFVEPYFK
notes: designed to be equivalent to the deletion of Seckel-2 syndrome; also called ΔC782 CtIP; Seckel-2 variant
B2: CtIP-L27E (natural protein, human, UniProt Q99708 1-897, looked up)
chain: MNISGSSCGSPNSADTSSDFKDLWTKEKECHDREVQGLQVKVTKLKQERILDAQRLEEFFTKNQQLREQQKVLHETIKVLEDRLRAGLCDRCAVTEEHMRKKQQEFENIRQQNLKLITELMNERNTLQEENKKLSEQLQQKIENDQQHQAAELECEEDVIPDSPITAFSFSGVNRLRRKENPHVRYIEQTHTKLEHSVCANEMRKVSKSSTHPQHNPNENEILVADTYDQSQSPMAKAHGTSSYTPDKSSFNLATVVAETLGLGVQEESETQGPMSPLGDELYHCLEGNHKKQPFEESTRNTEDSLRFSDSTSKTPPQEELPTRVSSPVFGATSSIKSGLDLNTSLSPSLLQPGKKKHLKTLPFSNTCISRLEKTRSKSEDSALFTHHSLGSEVNKIIIQSSNKQILINKNISESLGEQNRTEYGKDSNTDKHLEPLKSLGGRTSKRKKTEEESEHEVSCPQASFDKENAFPFPMDNQFSMNGDCVMDKPLDLSDRFSAIQRQEKSQGSETSKNKFRQVTLYEALKTIPKGFSSSRKASDGNCTLPKDSPGEPCSQECIILQPLNKCSPDNKPSLQIKEENAVFKIPLRPRESLETENVLDDIKSAGSHEPIKIQTRSDHGGCELASVLQLNPCRTGKIKSLQNNQDVSFENIQWSIDPGADLSQYKMDVTVIDTKDGSQSKLGGETVDMDCTLVSETVLLKMKKQEQKGEKSSNEERKMNDSLEDMFDRTTHEEYESCLADSFSQAADEEEELSTATKKLHTHGDKQDKVKQKAFVEPYFKGDERETSLQNFPHIEVVRKKEERRKLLGHTCKECEIYYADMPAEEREKKLASCSRHRFRYIPPNTPENFWEVGFPSTQTCMERGYIKEDLDPCPRPKRRQPYNAIFSPKGKEQKT
notes: CtIP, human, with the point mutation L27E in the N-terminal tetramerisation interface; Probably made like the wild type (insect cells, StrepII tag)
B3: Wild type CtIP (natural protein, human, UniProt Q99708 1-897, looked up)
chain: MNISGSSCGSPNSADTSSDFKDLWTKLKECHDREVQGLQVKVTKLKQERILDAQRLEEFFTKNQQLREQQKVLHETIKVLEDRLRAGLCDRCAVTEEHMRKKQQEFENIRQQNLKLITELMNERNTLQEENKKLSEQLQQKIENDQQHQAAELECEEDVIPDSPITAFSFSGVNRLRRKENPHVRYIEQTHTKLEHSVCANEMRKVSKSSTHPQHNPNENEILVADTYDQSQSPMAKAHGTSSYTPDKSSFNLATVVAETLGLGVQEESETQGPMSPLGDELYHCLEGNHKKQPFEESTRNTEDSLRFSDSTSKTPPQEELPTRVSSPVFGATSSIKSGLDLNTSLSPSLLQPGKKKHLKTLPFSNTCISRLEKTRSKSEDSALFTHHSLGSEVNKIIIQSSNKQILINKNISESLGEQNRTEYGKDSNTDKHLEPLKSLGGRTSKRKKTEEESEHEVSCPQASFDKENAFPFPMDNQFSMNGDCVMDKPLDLSDRFSAIQRQEKSQGSETSKNKFRQVTLYEALKTIPKGFSSSRKASDGNCTLPKDSPGEPCSQECIILQPLNKCSPDNKPSLQIKEENAVFKIPLRPRESLETENVLDDIKSAGSHEPIKIQTRSDHGGCELASVLQLNPCRTGKIKSLQNNQDVSFENIQWSIDPGADLSQYKMDVTVIDTKDGSQSKLGGETVDMDCTLVSETVLLKMKKQEQKGEKSSNEERKMNDSLEDMFDRTTHEEYESCLADSFSQAADEEEELSTATKKLHTHGDKQDKVKQKAFVEPYFKGDERETSLQNFPHIEVVRKKEERRKLLGHTCKECEIYYADMPAEEREKKLASCSRHRFRYIPPNTPENFWEVGFPSTQTCMERGYIKEDLDPCPRPKRRQPYNAIFSPKGKEQKT
notes: CtIP, human DNA repair factor, wild type, full length; the tag was probably cleaved from the wild type too; also called WT-CtIP; CtIP-WT
B4: CtIP-R100W (natural protein, human, UniProt Q99708 1-897, looked up)
chain: MNISGSSCGSPNSADTSSDFKDLWTKLKECHDREVQGLQVKVTKLKQERILDAQRLEEFFTKNQQLREQQKVLHETIKVLEDRLRAGLCDRCAVTEEHMWKKQQEFENIRQQNLKLITELMNERNTLQEENKKLSEQLQQKIENDQQHQAAELECEEDVIPDSPITAFSFSGVNRLRRKENPHVRYIEQTHTKLEHSVCANEMRKVSKSSTHPQHNPNENEILVADTYDQSQSPMAKAHGTSSYTPDKSSFNLATVVAETLGLGVQEESETQGPMSPLGDELYHCLEGNHKKQPFEESTRNTEDSLRFSDSTSKTPPQEELPTRVSSPVFGATSSIKSGLDLNTSLSPSLLQPGKKKHLKTLPFSNTCISRLEKTRSKSEDSALFTHHSLGSEVNKIIIQSSNKQILINKNISESLGEQNRTEYGKDSNTDKHLEPLKSLGGRTSKRKKTEEESEHEVSCPQASFDKENAFPFPMDNQFSMNGDCVMDKPLDLSDRFSAIQRQEKSQGSETSKNKFRQVTLYEALKTIPKGFSSSRKASDGNCTLPKDSPGEPCSQECIILQPLNKCSPDNKPSLQIKEENAVFKIPLRPRESLETENVLDDIKSAGSHEPIKIQTRSDHGGCELASVLQLNPCRTGKIKSLQNNQDVSFENIQWSIDPGADLSQYKMDVTVIDTKDGSQSKLGGETVDMDCTLVSETVLLKMKKQEQKGEKSSNEERKMNDSLEDMFDRTTHEEYESCLADSFSQAADEEEELSTATKKLHTHGDKQDKVKQKAFVEPYFKGDERETSLQNFPHIEVVRKKEERRKLLGHTCKECEIYYADMPAEEREKKLASCSRHRFRYIPPNTPENFWEVGFPSTQTCMERGYIKEDLDPCPRPKRRQPYNAIFSPKGKEQKT
notes: CtIP, human, with the point mutation R100W that is associated with Seckel-like disease and early onset breast cancer; Expected tetramer mass is printed as 404 kDa, as for the wild type; also called R100W CtIP; source: insect cells (baculovirus, pACEBac1), purified
B5: CtIP ΔN541 (domain or fragment, human, UniProt Q99708 541-897, looked up)
chain: GNCTLPKDSPGEPCSQECIILQPLNKCSPDNKPSLQIKEENAVFKIPLRPRESLETENVLDDIKSAGSHEPIKIQTRSDHGGCELASVLQLNPCRTGKIKSLQNNQDVSFENIQWSIDPGADLSQYKMDVTVIDTKDGSQSKLGGETVDMDCTLVSETVLLKMKKQEQKGEKSSNEERKMNDSLEDMFDRTTHEEYESCLADSFSQAADEEEELSTATKKLHTHGDKQDKVKQKAFVEPYFKGDERETSLQNFPHIEVVRKKEERRKLLGHTCKECEIYYADMPAEEREKKLASCSRHRFRYIPPNTPENFWEVGFPSTQTCMERGYIKEDLDPCPRPKRRQPYNAIFSPKGKEQKT
notes: CtIP, human, the first 540 amino acids removed (begins at residue 541); a and b are two SEC fractions (dimer and monomer peaks) of the same preparation; No tag cleavage is described in its purification; also called ΔN541a; ΔN541b; source: High-Five insect cells (baculovirus), purified (StrepTactin, MonoQ, Superose 6 SEC)
B6: CtIP ΔN500 (domain or fragment, human, UniProt Q99708 500-897, looked up)
chain: IQRQEKSQGSETSKNKFRQVTLYEALKTIPKGFSSSRKASDGNCTLPKDSPGEPCSQECIILQPLNKCSPDNKPSLQIKEENAVFKIPLRPRESLETENVLDDIKSAGSHEPIKIQTRSDHGGCELASVLQLNPCRTGKIKSLQNNQDVSFENIQWSIDPGADLSQYKMDVTVIDTKDGSQSKLGGETVDMDCTLVSETVLLKMKKQEQKGEKSSNEERKMNDSLEDMFDRTTHEEYESCLADSFSQAADEEEELSTATKKLHTHGDKQDKVKQKAFVEPYFKGDERETSLQNFPHIEVVRKKEERRKLLGHTCKECEIYYADMPAEEREKKLASCSRHRFRYIPPNTPENFWEVGFPSTQTCMERGYIKEDLDPCPRPKRRQPYNAIFSPKGKEQKT
notes: CtIP, human, the first 499 amino acids removed (begins at residue 500); a and b are two SEC fractions (dimer and monomer peaks) of the same preparation; also called ΔN500a; ΔN500b; source: High-Five insect cells (baculovirus), purified (StrepTactin, MonoQ, Superose 6 SEC); not shown: StrepII, C-terminal, kept
B7: CtIP ΔC608 (domain or fragment, human, UniProt Q99708 1-608, looked up)
chain: MNISGSSCGSPNSADTSSDFKDLWTKLKECHDREVQGLQVKVTKLKQERILDAQRLEEFFTKNQQLREQQKVLHETIKVLEDRLRAGLCDRCAVTEEHMRKKQQEFENIRQQNLKLITELMNERNTLQEENKKLSEQLQQKIENDQQHQAAELECEEDVIPDSPITAFSFSGVNRLRRKENPHVRYIEQTHTKLEHSVCANEMRKVSKSSTHPQHNPNENEILVADTYDQSQSPMAKAHGTSSYTPDKSSFNLATVVAETLGLGVQEESETQGPMSPLGDELYHCLEGNHKKQPFEESTRNTEDSLRFSDSTSKTPPQEELPTRVSSPVFGATSSIKSGLDLNTSLSPSLLQPGKKKHLKTLPFSNTCISRLEKTRSKSEDSALFTHHSLGSEVNKIIIQSSNKQILINKNISESLGEQNRTEYGKDSNTDKHLEPLKSLGGRTSKRKKTEEESEHEVSCPQASFDKENAFPFPMDNQFSMNGDCVMDKPLDLSDRFSAIQRQEKSQGSETSKNKFRQVTLYEALKTIPKGFSSSRKASDGNCTLPKDSPGEPCSQECIILQPLNKCSPDNKPSLQIKEENAVFKIPLRPRESLETENVLDDIKSAGS
notes: designed to be equivalent to the deletion of Jawad syndrome; also called ΔC608 CtIP; Jawad variant

Assays:
[1] = molecular target: the molecule itself; assay: SEC-MALS; Superose 6 10/300; samples of 0.5–1 mg/ml injected; 20 mM Tris–Cl pH 8.0, 200 mM NaCl, 0.5 mM TCEP
[2] = molecular target: the molecule itself; assay: native gel or EMSA; native blue PAGE of purified CtIP proteins, compared with the wild type (tetramer) and CtIP-L27E (dimer) reference proteins

Protein	stoichiometry N [1]	binding result [2]
B1	4	
B2		binds
B3	4	
B4	4	
B5	2	
B6	2	
B7	4	
